From IntAct's records for PubMed 17474147

B1: 1-phosphatidylinositol 4,5-bisphosphate phosphodiesterase gamma-1 (Homo sapiens), P19174 (parent)
chain: MAGAASPCANGCGPGAPSDAEVLHLCRSLEVGTVMTLFYSKKSQRPERKTFQVKLETRQITWSRGADKIEGAIDIREIKEIRPGKTSRDFDRYQEDPAFRPDQSHCFVILYGMEFRLKTLSLQATSEDEVNMWIKGLTWLMEDTLQAPTPLQIERWLRKQFYSVDRNREDRISAKDLKNMLSQVNYRVPNMRFLRERLTDLEQRSGDITYGQFAQLYRSLMYSAQKTMDLPFLEASTLRAGERPELCRVSLPEFQQFLLDYQGELWAVDRLQVQEFMLSFLRDPLREIEEPYFFLDEFVTFLFSKENSVWNSQLDAVCPDTMNNPLSHYWISSSHNTYLTGDQFSSESSLEAYARCLRMGCRCIELDCWDGPDGMPVIYHGHTLTTKIKFSDVLHTIKEHAFVASEYPVILSIEDHCSIAQQRNMAQYFKKVLGDTLLTKPVEISADGLPSPNQLKRKILIKHKKLAEGSAYEEVPTSMMYSENDISNSIKNGILYLEDPVNHEWYPHYFVLTSSKIYYSEETSSDQGNEDEEEPKEVSSSTELHSNEKWFHGKLGAGRDGRHIAERLLTEYCIETGAPDGSFLVRESETFVGDYTLSFWRNGKVQHCRIHSRQDAGTPKFFLTDNLVFDSLYDLITHYQQVPLRCNEFEMRLSEPVPQTNAHESKEWYHASLTRAQAEHMLMRVPRDGAFLVRKRNEPNSYAISFRAEGKIKHCRVQQEGQTVMLGNSEFDSLVDLISYYEKHPLYRKMKLRYPINEEALEKIGTAEPDYGALYEGRNPGFYVEANPMPTFKCAVKALFDYKAQREDELTFIKSAIIQNVEKQEGGWWRGDYGGKKQLWFPSNYVEEMVNPVALEPEREHLDENSPLGDLLRGVLDVPACQIAIRPEGKNNRLFVFSISMASVAHWSLDVAADSQEELQDWVKKIREVAQTADARLTEGKIMERRKKIALELSELVVYCRPVPFDEEKIGTERACYRDMSSFPETKAEKYVNKAKGKKFLQYNRLQLSRIYPKGQRLDSSNYDPLPMWICGSQLVALNFQTPDKPMQMNQALFMTGRHCGYVLQPSTMRDEAFDPFDKSSLRGLEPCAISIEVLGARHLPKNGRGIVCPFVEIEVAGAEYDSTKQKTEFVVDNGLNPVWPAKPFHFQISNPEFAFLRFVVYEEDMFSDQNFLAQATFPVKGLKTGYRAVPLKNNYSEDLELASLLIKIDIFPAKENGDLSPFSGTSLRERGSDASGQLFHGRAREGSFESRYQQPFEDFRISQEHLADHFDSRERRAPRRTRVNGDNRL
B2: 1-phosphatidylinositol 4,5-bisphosphate phosphodiesterase gamma-1 (Homo sapiens), P19174 (parent)
chain: B1 chain
partner: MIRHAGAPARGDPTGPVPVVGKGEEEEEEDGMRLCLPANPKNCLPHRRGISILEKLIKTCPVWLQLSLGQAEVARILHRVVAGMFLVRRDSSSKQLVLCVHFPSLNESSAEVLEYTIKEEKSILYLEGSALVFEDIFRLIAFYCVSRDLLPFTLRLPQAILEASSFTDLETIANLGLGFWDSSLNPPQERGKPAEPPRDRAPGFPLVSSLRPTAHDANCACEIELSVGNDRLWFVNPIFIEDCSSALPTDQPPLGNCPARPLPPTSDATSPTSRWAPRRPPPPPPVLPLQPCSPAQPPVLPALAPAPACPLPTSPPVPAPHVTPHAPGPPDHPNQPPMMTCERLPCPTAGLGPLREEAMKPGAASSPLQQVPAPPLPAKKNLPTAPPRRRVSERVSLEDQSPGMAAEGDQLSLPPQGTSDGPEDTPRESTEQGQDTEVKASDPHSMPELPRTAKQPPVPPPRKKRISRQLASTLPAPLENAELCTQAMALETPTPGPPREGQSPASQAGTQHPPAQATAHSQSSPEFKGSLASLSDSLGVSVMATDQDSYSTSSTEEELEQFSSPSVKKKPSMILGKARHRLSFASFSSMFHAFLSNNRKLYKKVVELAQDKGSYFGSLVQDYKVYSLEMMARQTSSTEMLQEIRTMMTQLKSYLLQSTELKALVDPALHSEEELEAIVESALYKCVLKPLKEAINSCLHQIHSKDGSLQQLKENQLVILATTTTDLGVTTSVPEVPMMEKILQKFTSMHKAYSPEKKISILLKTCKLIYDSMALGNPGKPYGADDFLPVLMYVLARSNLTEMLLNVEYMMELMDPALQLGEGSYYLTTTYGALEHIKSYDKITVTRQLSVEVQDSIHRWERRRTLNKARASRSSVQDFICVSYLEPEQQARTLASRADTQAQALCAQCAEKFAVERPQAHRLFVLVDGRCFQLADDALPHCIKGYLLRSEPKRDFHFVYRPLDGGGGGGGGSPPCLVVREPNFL

Experiments:
[1] = variants of: B1; details: with asap2_human ASAP2, O43150
abl2_human ABL2, P42684 = variants of: B1; details: with abl2_human ABL2, P42684
[2] = variants of: B1; details: with shan2_human SHANK2, Q9UPX8
[3] = variants of: B1; details: with m4k1_human MAP4K1, Q92918
rin3_human RIN3, Q8TB24 = variants of: B2; details: with rin3_human RIN3, Q8TB24

abl2_human ABL2, P42684, sequence (P42684 whole entry): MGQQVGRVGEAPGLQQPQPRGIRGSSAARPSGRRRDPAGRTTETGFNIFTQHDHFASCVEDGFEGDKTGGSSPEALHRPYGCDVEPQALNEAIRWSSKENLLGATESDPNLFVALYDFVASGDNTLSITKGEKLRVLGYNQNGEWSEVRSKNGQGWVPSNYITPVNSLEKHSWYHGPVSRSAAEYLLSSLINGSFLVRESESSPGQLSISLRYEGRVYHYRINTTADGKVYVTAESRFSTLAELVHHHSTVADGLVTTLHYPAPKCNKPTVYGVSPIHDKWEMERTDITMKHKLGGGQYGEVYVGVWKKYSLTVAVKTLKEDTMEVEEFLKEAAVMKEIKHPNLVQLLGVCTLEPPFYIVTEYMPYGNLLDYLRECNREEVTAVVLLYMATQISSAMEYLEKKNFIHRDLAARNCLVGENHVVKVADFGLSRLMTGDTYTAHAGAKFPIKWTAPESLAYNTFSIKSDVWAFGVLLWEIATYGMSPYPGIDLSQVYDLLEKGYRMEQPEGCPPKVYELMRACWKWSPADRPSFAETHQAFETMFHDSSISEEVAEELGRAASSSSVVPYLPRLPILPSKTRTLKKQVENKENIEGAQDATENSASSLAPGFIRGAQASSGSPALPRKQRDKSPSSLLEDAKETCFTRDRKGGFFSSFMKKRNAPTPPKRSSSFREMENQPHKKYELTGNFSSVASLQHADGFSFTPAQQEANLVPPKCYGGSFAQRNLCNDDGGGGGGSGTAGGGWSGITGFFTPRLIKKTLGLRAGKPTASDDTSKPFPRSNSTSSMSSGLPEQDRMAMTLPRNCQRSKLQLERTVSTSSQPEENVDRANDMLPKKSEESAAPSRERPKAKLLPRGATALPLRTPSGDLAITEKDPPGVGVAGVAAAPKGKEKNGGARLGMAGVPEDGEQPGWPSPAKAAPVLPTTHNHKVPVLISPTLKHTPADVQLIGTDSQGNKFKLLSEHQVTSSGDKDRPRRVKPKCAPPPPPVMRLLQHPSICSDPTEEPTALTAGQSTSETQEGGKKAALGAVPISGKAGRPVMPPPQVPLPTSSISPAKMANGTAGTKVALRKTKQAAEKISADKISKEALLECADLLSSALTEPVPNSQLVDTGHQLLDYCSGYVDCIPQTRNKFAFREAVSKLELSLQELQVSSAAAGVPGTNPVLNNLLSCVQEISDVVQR
shan2_human SHANK2, Q9UPX8, sequence (Q9UPX8 whole entry): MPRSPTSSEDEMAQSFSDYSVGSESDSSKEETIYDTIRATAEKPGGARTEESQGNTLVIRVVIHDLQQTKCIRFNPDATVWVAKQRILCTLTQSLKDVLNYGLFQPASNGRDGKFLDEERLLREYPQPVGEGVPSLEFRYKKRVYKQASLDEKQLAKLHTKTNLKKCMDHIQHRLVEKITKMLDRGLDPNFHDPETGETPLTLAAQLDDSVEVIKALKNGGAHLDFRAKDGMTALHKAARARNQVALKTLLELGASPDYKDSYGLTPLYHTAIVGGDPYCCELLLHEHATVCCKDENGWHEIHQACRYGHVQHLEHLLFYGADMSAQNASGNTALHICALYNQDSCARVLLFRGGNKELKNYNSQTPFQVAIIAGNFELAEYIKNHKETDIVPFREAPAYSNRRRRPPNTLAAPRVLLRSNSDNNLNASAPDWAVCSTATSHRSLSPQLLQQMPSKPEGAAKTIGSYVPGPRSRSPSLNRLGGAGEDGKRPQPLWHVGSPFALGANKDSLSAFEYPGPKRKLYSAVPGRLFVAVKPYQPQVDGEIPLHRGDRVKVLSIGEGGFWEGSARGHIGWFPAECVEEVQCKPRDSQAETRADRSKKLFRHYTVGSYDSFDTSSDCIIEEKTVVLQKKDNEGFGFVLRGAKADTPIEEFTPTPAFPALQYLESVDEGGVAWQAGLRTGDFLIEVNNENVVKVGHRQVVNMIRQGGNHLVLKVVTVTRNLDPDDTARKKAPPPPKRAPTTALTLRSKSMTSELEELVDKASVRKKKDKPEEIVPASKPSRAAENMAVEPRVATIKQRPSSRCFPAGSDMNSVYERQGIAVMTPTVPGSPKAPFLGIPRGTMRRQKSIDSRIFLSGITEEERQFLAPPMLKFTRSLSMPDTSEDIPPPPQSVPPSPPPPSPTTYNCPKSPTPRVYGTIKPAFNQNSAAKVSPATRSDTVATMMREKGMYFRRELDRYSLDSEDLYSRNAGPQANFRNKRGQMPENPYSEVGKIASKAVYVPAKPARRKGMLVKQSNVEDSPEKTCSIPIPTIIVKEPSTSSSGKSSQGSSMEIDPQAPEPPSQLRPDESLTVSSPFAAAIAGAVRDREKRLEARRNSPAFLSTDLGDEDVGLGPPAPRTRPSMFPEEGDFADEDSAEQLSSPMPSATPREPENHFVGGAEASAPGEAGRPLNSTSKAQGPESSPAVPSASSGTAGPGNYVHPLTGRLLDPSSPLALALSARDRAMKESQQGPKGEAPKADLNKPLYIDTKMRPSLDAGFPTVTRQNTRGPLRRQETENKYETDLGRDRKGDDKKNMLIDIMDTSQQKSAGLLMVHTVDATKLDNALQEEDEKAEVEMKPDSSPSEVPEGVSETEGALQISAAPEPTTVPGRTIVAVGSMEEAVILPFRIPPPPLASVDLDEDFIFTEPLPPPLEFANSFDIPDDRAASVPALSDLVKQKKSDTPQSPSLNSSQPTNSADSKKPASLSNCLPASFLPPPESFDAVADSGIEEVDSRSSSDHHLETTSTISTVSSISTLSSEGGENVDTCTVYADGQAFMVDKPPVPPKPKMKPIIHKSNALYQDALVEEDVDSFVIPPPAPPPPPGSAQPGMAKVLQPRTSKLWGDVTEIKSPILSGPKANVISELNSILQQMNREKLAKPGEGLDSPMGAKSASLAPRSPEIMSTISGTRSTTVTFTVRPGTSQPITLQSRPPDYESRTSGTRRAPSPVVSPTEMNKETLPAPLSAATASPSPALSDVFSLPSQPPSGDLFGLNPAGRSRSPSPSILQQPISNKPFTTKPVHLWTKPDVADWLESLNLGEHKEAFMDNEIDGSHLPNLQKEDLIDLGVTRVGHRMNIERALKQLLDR
asap2_human ASAP2, O43150, sequence (O43150 whole entry): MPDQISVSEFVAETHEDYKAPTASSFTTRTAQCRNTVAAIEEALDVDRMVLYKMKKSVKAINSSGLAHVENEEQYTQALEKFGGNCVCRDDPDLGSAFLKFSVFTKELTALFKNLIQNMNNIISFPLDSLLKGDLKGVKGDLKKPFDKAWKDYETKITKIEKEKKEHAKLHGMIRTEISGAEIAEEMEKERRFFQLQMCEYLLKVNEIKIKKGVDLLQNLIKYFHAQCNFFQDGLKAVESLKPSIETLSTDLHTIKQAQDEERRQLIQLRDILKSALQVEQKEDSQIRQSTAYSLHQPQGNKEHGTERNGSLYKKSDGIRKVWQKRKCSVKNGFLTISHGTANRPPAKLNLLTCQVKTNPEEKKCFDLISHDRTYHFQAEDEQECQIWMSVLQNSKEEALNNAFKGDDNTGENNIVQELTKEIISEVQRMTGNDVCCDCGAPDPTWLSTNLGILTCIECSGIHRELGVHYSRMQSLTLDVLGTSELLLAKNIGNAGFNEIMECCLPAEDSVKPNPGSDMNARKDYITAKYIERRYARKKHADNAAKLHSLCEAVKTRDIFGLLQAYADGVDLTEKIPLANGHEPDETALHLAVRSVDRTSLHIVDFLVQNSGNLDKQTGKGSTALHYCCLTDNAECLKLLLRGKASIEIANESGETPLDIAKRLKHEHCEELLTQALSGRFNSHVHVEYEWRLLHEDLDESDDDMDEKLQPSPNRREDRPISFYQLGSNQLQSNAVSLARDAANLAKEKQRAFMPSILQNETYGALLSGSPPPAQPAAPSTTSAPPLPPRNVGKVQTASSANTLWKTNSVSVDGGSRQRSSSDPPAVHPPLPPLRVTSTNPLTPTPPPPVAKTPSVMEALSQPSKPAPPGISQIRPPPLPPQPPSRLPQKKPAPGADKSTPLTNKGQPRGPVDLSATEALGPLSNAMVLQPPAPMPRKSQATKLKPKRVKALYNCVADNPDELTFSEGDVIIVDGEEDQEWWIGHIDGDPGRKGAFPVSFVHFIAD
m4k1_human MAP4K1, Q92918, sequence (Q92918 whole entry, looked up): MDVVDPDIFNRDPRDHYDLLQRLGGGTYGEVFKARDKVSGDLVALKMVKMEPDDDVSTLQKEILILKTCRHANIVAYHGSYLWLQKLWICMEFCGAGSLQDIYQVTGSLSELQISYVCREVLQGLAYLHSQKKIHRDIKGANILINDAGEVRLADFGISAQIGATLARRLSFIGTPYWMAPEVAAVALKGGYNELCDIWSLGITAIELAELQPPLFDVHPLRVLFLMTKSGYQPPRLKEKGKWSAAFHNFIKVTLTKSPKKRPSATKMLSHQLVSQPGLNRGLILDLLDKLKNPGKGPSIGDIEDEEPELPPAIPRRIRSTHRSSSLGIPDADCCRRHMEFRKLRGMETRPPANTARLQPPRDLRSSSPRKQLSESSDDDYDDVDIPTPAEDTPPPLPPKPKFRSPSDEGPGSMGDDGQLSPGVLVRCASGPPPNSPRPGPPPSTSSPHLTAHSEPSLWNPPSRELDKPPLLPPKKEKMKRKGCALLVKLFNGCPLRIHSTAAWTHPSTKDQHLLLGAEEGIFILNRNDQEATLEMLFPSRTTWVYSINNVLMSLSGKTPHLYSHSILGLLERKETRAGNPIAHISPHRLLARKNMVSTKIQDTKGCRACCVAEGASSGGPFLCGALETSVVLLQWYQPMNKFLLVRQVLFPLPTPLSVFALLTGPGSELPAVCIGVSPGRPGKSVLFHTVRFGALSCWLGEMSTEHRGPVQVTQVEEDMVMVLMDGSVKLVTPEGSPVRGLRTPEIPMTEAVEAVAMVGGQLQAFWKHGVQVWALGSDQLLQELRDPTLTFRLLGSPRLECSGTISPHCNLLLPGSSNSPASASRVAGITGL

W828A
effect of a mutation on the interaction [1]: disrupting interaction
effect of a mutation on the interaction (abl2_human ABL2, P42684): disrupting interaction
effect of a mutation on the interaction [2]: disrupting interaction
effect of a mutation on the interaction [3]: disrupting interaction

W828A
effect of a mutation on the interaction (rin3_human RIN3, Q8TB24): disrupting interaction
